For 1 molecule, Kd results are on record in PMC9857240.

The target of this experiment is His6-GFP-nCLU. The experiment is described as follows: AlphaScreen or HTRF; 30 nM His6-GFP fusion protein with 0-60 nM biotinylated GST-IPO13; triplicates, sigmoidal association curves. A general note: In Alpha technology, singlet oxygen from a donor bead excites a nearby acceptor bead.

As a reminder, the Kd is the equilibrium constant for the complex coming apart. Read a high Kd as weaker binding.

B1: biotinylated GST-IPO13 (natural protein)
chain: MERREEQLGAAGAGAAPALDFTVENVEKALHQLYYDPNIDNKNLAQKWLMQAQVSPQAWHFSWQLLQPDKVPEIQYFGASALHIKISRYWSDIPTDQYESLKAQLFTQITRFASGSKIVLTRLCVALASLALSMMPDAWPCAVADMVRLFQAEDSPVDSQGRCLALLELLTVLPEEFQTSRLPQYRKGLVRTSLAVECGTVFPLLEQLLQQPSSPSCVRQKVLKCFSSWVQLEVPLQDCEALIQAAFAALQDSELFDSSVEAIVNAISQPDAQRYVNTLLKLIPLVLGLQEQLRQAVQNGDMETSHGICRIAVALGENHSRALLDQVEHWQSFLALVNMIMFCTGIPGHYPVNETTSSLTLTFWYTLQDDILSFEAEKQAVYQQVYRPVYFQLVDVLLHKAQFPSDEEYGFWSSDEKEQFRIYRVDISDTLMYVYEMLGAELLSNLYDKLGRLLTSSEEPYSWQHTEALLYGFQSIAETIDVNYSDVVPGLIGLIPRISISNVQLADTVMFTIGALSEWLADHPVMINSVLPLVLHALGNPELSVSSVSTLKKICRECKYDLPPYAANIVAVSQDVLMKQIHKTSQCMWLMQALGFLLSALQVEEILKNLHSLISPYIQQLEKLAEEIPNPSNKLAIVHILGLLSNLFTTLDVSHHEDDHEGPELRKLPVPQGPNPVVVVLQQVFQLIQKVLSKWLNDAQVVEAVCAIFEKSVKTLLDDFAPMVPQLCEMLGRMYSTVPQASALDLTRQLVHIFAHEPAHFPPIEALFLLVTSVTLSLFQQGPRDHPDIVDSFMQLLAQALKRKPDLFLCERLDVKAVFQCAVLALKFPEAPTVKASCGFFTELLPRCGEIESVGKVVQEDGRMLLIAVLEAIGGQASRSLMDCFADILFALNKHCFSLLSMWIKEALQPPGFPSARLSPEQKDTFSQQILRERVNKRRVKEMVKEFTLLCRGLHGTDYTADY
modifications: biotinylated
For B1, the Kd stood at 2.8 nM.
